# Source: the supplement of paper PMC12042874
# ± gives the uncertainty stated by the source.
# Experiment: amyloid nucleation score (Sup35N fusion, yeast selection) (log enrichment); library NNK3; higher = more nucleation; inactive = no reads after selection
# Summary of the method: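 Sup35N was fused to peptides of 20 random codons and expressed in psi-negative yeast, which were induced with 100 μM copper sulfate for 24 hours and then grown on medium lacking adenine and uracil for 7 days at 30°C. Plasmid inserts from input and output were sequenced on Illumina. The nucleation score is the DiMSum log enrichment of output over input reads, centred on the mode score of non-aggregating sequences. Sequences with under 100 input reads were left out, and random libraries had three technical output replicates.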
row,Substance,amyloid nucleation score
1,HFILFSSYPFYF,inactive
2,HFNCRYNAGCDGVLVFDVLL,inactive
3,HFSMHITMLEFLTFNSARRV,2.3 ± 0.075
4,HFSSYAFLRTWTLYRHLTFM,inactive
5,HFYYPLCWVCSVLLSHLVPD,inactive
6,HGFMI,inactive
7,HGSLMATGICWLGIFVSEVA,inactive
8,HHNTYCYVLFELFTV,0.505 ± 0.49
9,HICLA,inactive
10,HIILFSIKSSKD,1.37 ± 0.12
11,HIKVVRPRSRCDLLGSPISQ,inactive
12,HILFLYRDLVILVLCSSHPC,inactive
13,HILSCSQVFG,0.025 ± 0.6
14,HISRYEITVGCLIFRLLTRE,2.46 ± 0.054
15,HIVIISYFRLLWSCIAPHGA,inactive
16,HKNVCRIQRR,inactive
17,HKVQESAY,inactive
18,HKWLV,inactive
19,HLIMNSDLGAATNIFMNPVA,inactive
20,HLLEVFKDSCRTRGRMLLWG,inactive
21,HLLYYVCRHQQFLWMDVQVE,inactive
22,HLPWFRVGATDMLSYTKSLG,inactive
23,HLRKVCGGFM,inactive

row,Substance,amyloid nucleation score
1,HLTVVSSKYITPSGTLMELH,0.648 ± 0.27
2,HMEYLKQLFFRTVLFTDQSV,inactive
3,HMFMRNLEMRVGHSFHRLRD,inactive
4,HMFRVVPSLIRI,inactive
5,HMIRAVFLSCMSASILVTIK,-0.366 ± 0.53
6,HMLYLNLFGIIGIIFCDWNM,inactive
7,HMNGEDESDNGYIHFLRRER,inactive
8,HNCPFFSTDMKCSKNIHIFG,1.78 ± 0.077
9,HNLHSYEHRVRTSQAV,inactive
10,HNPLVRFAQHLLITEDQCMN,inactive
11,HNQKSCVYMSEGSWRSL,inactive
12,HNSYRED,inactive
13,HNVFST,inactive
14,HPVLRIRLLREKMMRFS,inactive
15,HQVNVLWQVYILAFSLTSRH,inactive
16,HQWYG,inactive
17,HRLTCELFTWMPAEVCVWAD,inactive
18,HRRSMQLWG,inactive
19,HRSIRLYSETDWFRGLGSAG,inactive
20,HRYYCRLVFVEQTRDNIQPW,inactive
21,HSCMCKSLNASLMVDVRLPR,inactive
22,HSDFY,inactive
23,HSGETIYKVWMMGSRTEIAW,inactive

row,Substance,amyloid nucleation score
1,HSINV,inactive
2,HSLHMGRKAMQYEYTQPAGI,inactive
3,HSLHMKVCCWGSCEIFSMVR,inactive
4,HSLTGSHSFVGF,inactive
5,HSPKPKGWFDGTNSRDGKLY,inactive
6,HSRTGLGLHKLRMAVGFCIN,inactive
7,HSSIVWKRYSIYFVKNGGTF,inactive
8,HSYTVWLVNMS,2.35 ± 0.077
9,HTGLVILSVISPVTCPYWRK,0.329 ± 0.3
10,HVFLLHVMAFYFDLSCFG,inactive
11,HVFPVIAPYRLMLNLKWFVY,inactive
12,HVNSNPHVLASEVK,inactive
13,HWESGGKIWNKEYLAGLLPR,inactive
14,HWYVIKLSSNGCTFAVSLRV,inactive
15,HYADRTAWPSACASLYSHAL,inactive
16,HYCRNTGC,inactive
17,HYDMNFIARVPLSQSL,inactive
18,HYFSYIINTAMMRKAYILSG,0.543 ± 0.14
19,HYHSWFPTYSYSYYV,2.71 ± 0.08
20,HYILLG,inactive
21,HYLAIYGVGCCNFYSYTAVC,1.28 ± 0.085
22,HYWQYMFYSLHFVYRS,inactive
23,IAAQSRRVGRCDIASLQLLE,inactive

row,Substance,amyloid nucleation score
1,IAEDIRARPSVWDLMRSSAI,inactive
2,IALGRFTCNGIVVVSF,inactive
3,IALGWFVIRFDEVVKLFKMF,inactive
4,IAMWDAMCFYWKIMSGSIMV,inactive
5,IAPVFWITLYHNFTSRIDRF,1.44 ± 0.14
6,IARKQPLLSMATTSSQVFRA,inactive
7,IATDRSSKVLSFHT,inactive
8,IATIVCYRLDGYHVLSYAHT,inactive
9,IAYDWCQVSVTNFMSRSLMH,-0.04 ± 0.75
10,ICGMWGFDAMRITSWNVPNG,0.075 ± 0.29
11,ICQQCWTVT,inactive
12,ICRLGLLFIMTLRYYNVFVR,inactive
13,ICRLVLSNNF,inactive
14,ICTKSALYQTMLS,inactive
15,ICVLCSGIMKMCCAMGDLSV,1.36 ± 0.064
16,ICYRRPTSSMP,inactive
17,IDIVNL,inactive
18,IDKFVRFCIFSWCLMNGDVG,inactive
19,IDLVVSQVWQSTGAVVALWH,-0.301 ± 0.83
20,IDQRWYCALQCHCREEINCR,inactive
21,IDRGNSNRPCPDFTDCFYGR,inactive
22,IDSDMDKNS,inactive
23,IDSNE,inactive

row,Substance,amyloid nucleation score
1,IDVRATNPVRAVETD,inactive
2,IEDEFEAMSHCLECRNFRKL,inactive
3,IEFGYLGT,inactive
4,IEINCCSNFIGVCVDNLNL,2.57 ± 0.055
5,IFCVGVSLRQ,0.347 ± 0.3
6,IFFVYLLSANIGCYEWDVVP,0.821 ± 0.12
7,IFHRD,inactive
8,IFLCI,inactive
9,IFLIPYA,inactive
10,IFLNLLSRGFGLGRELKCRC,inactive
11,IFMLWPAD,inactive
12,IFNNYIIYTSYKEV,3.49 ± 0.077
13,IFNQLDLFCDRTLDGLRDAK,inactive
14,IFNRQFQKSIMRSWLNYESK,0.864 ± 0.13
15,IFPFFVVFGFDTYAGI,inactive
16,IFSMMLF,inactive
17,IFSRGEGLLRRMVSL,inactive
18,IFVCKRLMRGLVR,inactive
19,IFYDNADTSKMNHISH,inactive
20,IFYVGNTLIFFIYMNWNRTY,0.679 ± 0.24
21,IGDDGFVN,inactive
22,IGHGYMVDRWILRVVMVVAL,inactive
23,IGLSLGCVFVMDNVLNARN,1.55 ± 0.076

row,Substance,amyloid nucleation score
1,IGRTCMCLYSAVVFIRHGTT,inactive
2,IGVYWVLPPGFFGWQNTLMI,0.161 ± 0.56
3,IHHKLVDL,inactive
4,IHLGMWIRKQFY,0.985 ± 0.15
5,IIAPRLY,inactive
6,IIHLENMPICQGALIDGLAL,inactive
7,IIITVVGSCYSV,1.7 ± 0.071
8,IINFSYANAVVIVWLNISMG,1.08 ± 0.16
9,IIRSGGNGLCSTKYLSSHFL,inactive
10,IIRVGMLWVGKLLRRSWGEQ,inactive
11,IKFIPYYCYPCRLIRLRVKC,inactive
12,IKFRDVEGKTLVQKCSQIF,inactive
13,IKGQSLSNSVFWSGGLDLRV,inactive
14,IKLVIANCNYMMYVEMV,inactive
15,IKMGVRYGRNTVWTARCGSG,0.222 ± 0.6
16,IKQDVASSVFM,inactive
17,IKSERIWDM,inactive
18,IKSPLDFFNVYVMVLGNWQI,inactive
19,ILCAFTRVWCYTNGPYESGR,2.72 ± 0.053
20,ILIRITGAFYIMIINNRRLL,inactive
21,ILLLRGDGEACFNRVNDNSF,inactive
22,ILLMLSVQGNLLKRMRILSM,inactive
23,ILLRQKHVHNY,inactive

row,Substance,amyloid nucleation score
1,ILMELPRRRMWSLKALSLMY,inactive
2,ILRCVFRGYMYYVMGSFYLT,inactive
3,ILSCPSS,inactive
4,ILSNINFVRNSFCYYMINFI,inactive
5,ILTEYLPSTS,inactive
6,ILTKRTAAFDPLGLKNWERC,-0.398 ± 1.7
7,ILTLLCRFTYRDETPCLWTV,inactive
8,ILVHTHLSTLSIRHTASPMT,inactive
9,ILVLDSWYVACTTACKGTNK,-1.57 ± 2.5
10,ILVYLASLVTNFNYVHIPLG,0.969 ± 0.18
11,ILWLLILTFLNRRARCIEQN,-0.567 ± 0.51
12,IMCSGFFDTVKFGWSLLSFS,0.521 ± 0.24
13,IMILFI,0.13 ± 0.49
14,IMKACGDK,inactive
15,IMMFIPWTSYLKYRIIMDYS,inactive
16,IMMIDWWYMFGCYACLETCH,inactive
17,IMSRMYDDSFADLVCKHAVD,inactive
18,IMTVILSPLLTCNYFCCR,2.35 ± 0.085
19,IMWGYDSWFCSANHRSQFRY,-0.314 ± 0.98
20,IMYTRAYLFYTRDHCLFIRV,inactive
21,INCLRSLTNCINSCRPIIVL,inactive
22,INFSCLLLKHLFRWVRPYLS,inactive
23,INITLWWVTVEFNMSARVQI,inactive
